B1: RGD-DUP (di unit peptide with the cell attachment motif RGD at the N-terminal region) (peptide)
peptide: RGDTYEAALKQYEADLKKTYEAALKQYEADL
B2: YIGSR-DUP (di unit peptide with the cell attachment motif YIGSR at the N-terminal region) (peptide)
peptide: YIGSRTYEAALKQYEADLKKTYEAALKQYEADL

Target: integrins on cell surface of mucosae
Test: cell-based or functional assay

Row | Binder | Titer against PAc (intranasal RGD-DUP given together with an excess of RGDS peptide as inhibitor) (titer (maximum serum dilution)) | Titer against PAc (serum of BALB/c mice after intranasal administration of RGD-DUP) (titer (maximum serum dilution)) | Titer against PAc (intranasal YIGSR-DUP given together with an excess of YIGSR peptide as inhibitor) (titer (maximum serum dilution)) | Titer against PAc (serum of BALB/c mice after intranasal administration of YIGSR-DUP) (titer (maximum serum dilution))
1 | B1 | 256 | 5070 |  | 
2 | B2 |  |  | 235 | 1200

— patent publication US20070020257A1
